As usually defined, the IC50 is the point on the concentration scale where inhibition reaches its midpoint. Low values mean inhibition by little substance, high ones a need for much substance.

Bridge positions count the residues as written; N and C are the ends. Square brackets hold non-standard residues; d marks the D form. Ends that are not written are not given here. * marks the point of attachment. Phe(3,4-Cl2) = N[C@@H](Cc1ccc(Cl)c(Cl)c1)C(=O)O; Phe(4-CF3) = N[C@@H](Cc1ccc(C(F)(F)F)cc1)C(=O)O; Phe(4-tBu) = CC(C)(C)c1ccc(C[C@H](N)C(=O)O)cc1; Phe(2,4-Cl2) = N[C@@H](Cc1ccc(Cl)cc1Cl)C(=O)O; Oleoyl = CCCCCCCC/C=C\CCCCCCCC(=O)*; NMeR = CN[C@@H](CCCNC(=N)N)C(=O)O; hPhe = N[C@@H](CCc1ccccc1)C(=O)O; Myristoyl = CCCCCCCCCCCCCC(=O)*; Tic = O=C(O)[C@@H]1Cc2ccccc2CN1; β3hE = N[C@@H](CCC(=O)O)CC(=O)O; Pen = CC(C)(S)[C@H](N)C(=O)O Some results are limits rather than exact numbers.

The text below walks through data of patent US20220162261A1 (published 2022).

Experiment [1] addresses T1, rh integrin α4β7 (R&D Systems #5397-A30) (human, UniProt P13612 34-970; P26010 20-723).
T1 construct: bought; coated on a nickel coated plate; also called immobilized α4β7; immobilized α4β7 integrin protein
Put plainly: competition ELISA vs MAdCAM-1.

Experiment [2] concerns the target T2, human α4β7 integrin on cells (human, UniProt P13612 34-1032; P26010 20-798).
T2 construct: whole, on cells; also called α4β7 cell (Hu); RPMI8866 cells
Kind of experiment: RPMI8866 cell adhesion to MAdCAM-1.

B1: SEQ ID NO: 182 (peptide)
peptide: Ac-[Pen][NMeR]SDTL[Pen][Phe(4-tBu)][β3hE][dK]-NH2
modifications: disulfide 1-7; not fully specified (residue 10); printed as (Ac Pen N-Me-R S D T L Pen F(4-tBu) b-H-E k NH2)2 IDA Alexa-488, disulfide Pen-Pen; also: homodimer: two subunits joined by IDA linker, Alexa-488 label on the linker
B1: the concentration for half-maximal inhibition (IC50) in experiment [1] is at most 10 nM.

B2: SEQ ID NO: 14 (peptide)
peptide: Ac-[Pen][NMeR]SDTL[Pen][hPhe][dE][dK]-NH2
modifications: disulfide 1-7
SMILES: CC(=O)N[C@@H]1C(=O)N(C)[C@@H](CCCNC(=N)N)C(=O)N[C@@H](CO)C(=O)N[C@@H](CC(=O)O)C(=O)N[C@@H]([C@@H](C)O)C(=O)N[C@@H](CC(C)C)C(=O)N[C@H](C(=O)N[C@@H](CCc2ccccc2)C(=O)N[C@H](CCC(=O)O)C(=O)N[C@H](CCCCN)C(N)=O)C(C)(C)SSC1(C)C
In turn, B2 gave an IC50 in experiment [1] of over 25 nM.

B3: SEQ ID NO: 48 (peptide)
peptide: Ac-[Pen][NMeR][dD]DTL[Pen]WE[dK]-NH2
modifications: disulfide 1-7
SMILES: CC(=O)N[C@@H]1C(=O)N(C)[C@@H](CCCNC(=N)N)C(=O)N[C@H](CC(=O)O)C(=O)N[C@@H](CC(=O)O)C(=O)N[C@@H]([C@@H](C)O)C(=O)N[C@@H](CC(C)C)C(=O)N[C@H](C(=O)N[C@@H](Cc2c[nH]c3ccccc23)C(=O)N[C@@H](CCC(=O)O)C(=O)N[C@H](CCCCN)C(N)=O)C(C)(C)SSC1(C)C
In experiment [1], B3 gave an IC50 of over 1000 nM.

B4: SEQ ID NO: 46 (peptide)
peptide: Ac-[Pen][NMeR]SDDL[Pen]WE[dK]-NH2
modifications: disulfide 1-7
SMILES: CC(=O)N[C@@H]1C(=O)N(C)[C@@H](CCCNC(=N)N)C(=O)N[C@@H](CO)C(=O)N[C@@H](CC(=O)O)C(=O)N[C@@H](CC(=O)O)C(=O)N[C@@H](CC(C)C)C(=O)N[C@H](C(=O)N[C@@H](Cc2c[nH]c3ccccc23)C(=O)N[C@@H](CCC(=O)O)C(=O)N[C@H](CCCCN)C(N)=O)C(C)(C)SSC1(C)C
Turning to B4, the IC50 in experiment [1] is over 1000 nM.

B5: SEQ ID NO: 36 (peptide)
peptide: Ac-C[NMeR]SDTL[Pen]W[dK]-NH2
modifications: disulfide 1-7; not fully specified (residue 9); printed as (Ac C N-Me-R S D T L Pen W k NH2)2 PEG13, disulfide C-Pen; also: dimer, two subunits joined by PEG13 linker
In experiment [2], B5 registered an IC50 of over 50 nM.

B6: SEQ ID NO: 189 (peptide)
peptide: Ac-[Pen][NMeR]SQIQ[Pen][Phe(4-tBu)][β3hE][dK]-NH2
modifications: disulfide 1-7; also: homodimer via DIG linker on D-Lys10 side chains
Take B6: in experiment [2], the 50% inhibitory concentration (IC50) is over 10000 nM.

B7: SEQ ID NO: 16 (peptide)
peptide: Ac-[Pen][NMeR]SDTL[Pen][Phe(2,4-Cl2)]E[dK]-NH2
modifications: disulfide 1-7
SMILES: CC(=O)N[C@@H]1C(=O)N(C)[C@@H](CCCNC(=N)N)C(=O)N[C@@H](CO)C(=O)N[C@@H](CC(=O)O)C(=O)N[C@@H]([C@@H](C)O)C(=O)N[C@@H](CC(C)C)C(=O)N[C@H](C(=O)N[C@@H](Cc2ccc(Cl)cc2Cl)C(=O)N[C@@H](CCC(=O)O)C(=O)N[C@H](CCCCN)C(N)=O)C(C)(C)SSC1(C)C
The molecule B7 had an IC50 in experiment [1] of over 10 nM.

B8: SEQ ID NO: 89 (peptide)
peptide: Ac-[Pen][NMeR]SDTLC[Tic][dE][dK]-NH2
modifications: disulfide 1-7
SMILES: CC(=O)N[C@@H]1C(=O)N(C)[C@@H](CCCNC(=N)N)C(=O)N[C@@H](CO)C(=O)N[C@@H](CC(=O)O)C(=O)N[C@@H]([C@@H](C)O)C(=O)N[C@@H](CC(C)C)C(=O)N[C@H](C(=O)N2Cc3ccccc3C[C@H]2C(=O)N[C@H](CCC(=O)O)C(=O)N[C@H](CCCCN)C(N)=O)CSSC1(C)C
The molecule B8 showed an IC50 in experiment [1] of over 25 nM.

B9: SEQ ID NO: 192 (peptide)
peptide: Ac-[Pen][NMeR]SQIQ[Pen][Phe(4-tBu)][β3hE][dK]-NH2
modifications: disulfide 1-7; also: homodimer via IDA linker on D-Lys10 side chains, Alexa-647 label
In turn, B9 yielded an IC50 in experiment [2] of over 10000 nM.

B10: SEQ ID NO: 131 (peptide)
peptide: Ac-[Pen][NMeR]SDTL[Pen][Phe(4-tBu)]E[dK]-NH2
modifications: disulfide 1-7; not fully specified (residue 10); printed as (Ac Pen N-Me-R S D T L Pen F(4tBu) E k NH2)2 DIG, disulfide Pen-Pen; also: homodimer, two subunits joined by DIG linker
B10: the concentration for half-maximal inhibition (IC50) in experiment [1] was at most 10 nM.

B11: SEQ ID NO: 45 (peptide)
peptide: Ac-[Pen][NMeR]SDTL[Pen][hPhe]E[dK]-NH2
modifications: disulfide 1-7; not fully specified (residue 10); printed as (Ac Pen N-Me-R S D T L Pen HPhe E k NH2)2 DIG, disulfide Pen-Pen; also: dimer, two subunits joined by DIG linker
On to B11, for which the half-maximal inhibitory concentration (IC50) in experiment [2] was over 25 nM.

B12: SEQ ID NO: 37 (peptide)
peptide: Ac-C[NMeR]SDTL[Pen]W[dK]-NH2
modifications: disulfide 1-7; not fully specified (residue 9); printed as (Ac C N-Me-R S D T L Pen W k NH2)2 PEG25, disulfide C-Pen; also: dimer, two subunits joined by PEG25 linker
Regarding B12, the IC50 in experiment [2] was over 100 nM.

B13: SEQ ID NO: 21 (peptide)
peptide: C[NMeR]SDTL[Pen]W-NH2
modifications: disulfide 1-7; not fully specified (N-terminus); printed as PEG25 NH2 C N-Me-R S D T L Pen W NH2, disulfide C-Pen; also: N-terminal PEG25 linker, number of subunits not shown
notes: N-terminal linker printed without dimer brackets
Regarding B13, in experiment [2], the IC50 is over 50 nM.

B14: SEQ ID NO: 17 (peptide)
peptide: Ac-[Pen][NMeR]SDTL[Pen][Phe(3,4-Cl2)]E[dK]-NH2
modifications: disulfide 1-7
SMILES: CC(=O)N[C@@H]1C(=O)N(C)[C@@H](CCCNC(=N)N)C(=O)N[C@@H](CO)C(=O)N[C@@H](CC(=O)O)C(=O)N[C@@H]([C@@H](C)O)C(=O)N[C@@H](CC(C)C)C(=O)N[C@H](C(=O)N[C@@H](Cc2ccc(Cl)c(Cl)c2)C(=O)N[C@@H](CCC(=O)O)C(=O)N[C@H](CCCCN)C(N)=O)C(C)(C)SSC1(C)C
In experiment [1], B14 had an IC50 of over 10 nM.

B15: SEQ ID NO: 3 (peptide)
peptide: Ac-[Pen][NMeR]SDTL[Pen][Phe(4-CF3)][dE][dK]-NH2
modifications: disulfide 1-7; not fully specified (residue 10); printed as (Ac Pen N-Me-R S D T L Pen F(4-CF3) e k NH2)2 DIG, disulfide Pen-Pen; also: dimer, two subunits joined by DIG linker
With B15, the IC50 in experiment [2] was over 25 nM.

B16: SEQ ID NO: 181 (peptide)
peptide: Myristoyl-[Pen][NMeR]SDTL[Pen][Phe(4-tBu)][β3hE][dK]-NH2
modifications: disulfide 1-7
Take B16: the half-inhibitory concentration (IC50) in experiment [2] is over 1000 nM.

B17: SEQ ID NO: 19 (peptide)
peptide: Ac-[Pen][NMeR]SDTL[Pen][hPhe]E[dK]-NH2
modifications: disulfide 1-7
SMILES: CC(=O)N[C@@H]1C(=O)N(C)[C@@H](CCCNC(=N)N)C(=O)N[C@@H](CO)C(=O)N[C@@H](CC(=O)O)C(=O)N[C@@H]([C@@H](C)O)C(=O)N[C@@H](CC(C)C)C(=O)N[C@H](C(=O)N[C@@H](CCc2ccccc2)C(=O)N[C@@H](CCC(=O)O)C(=O)N[C@H](CCCCN)C(N)=O)C(C)(C)SSC1(C)C
B17 came in with an IC50 in experiment [1] of over 10 nM.

B18: SEQ ID NO: 190 (peptide)
peptide: Ac-[Pen][NMeR]SQIQ[Pen][Phe(4-tBu)][β3hE][dK]-NH2
modifications: disulfide 1-7; also: homodimer via IDA linker on D-Lys10 side chains
Molecule B18 registered an IC50 in experiment [2] of over 100000 nM.

B19: SEQ ID NO: 183 (peptide)
peptide: Ac-[Pen][NMeR]SDTL[Pen][Phe(4-tBu)][β3hE][dK]-NH2
modifications: disulfide 1-7; not fully specified (residue 10); printed as (Ac Pen N-Me-R S D T L Pen F(4-Bu) b-H-E k NH2)2 IDA Alexa-647, disulfide Pen-Pen; also: homodimer: two subunits joined by IDA linker, Alexa-647 label on the linker
notes: F(4-Bu) as printed
Consider B19, for which the IC50 in experiment [1] is at most 10 nM.

B20: SEQ ID NO: 20 (peptide)
peptide: C[NMeR]SDTL[Pen]W-NH2
modifications: disulfide 1-7; not fully specified (N-terminus); printed as PEG13 NH2 C N-Me-R S D T L Pen W NH2, disulfide C-Pen; also: N-terminal PEG13 linker, number of subunits not shown
notes: as for B13
In the case of B20, the 50% inhibitory concentration (IC50) in experiment [2] was over 50 nM.

B21: SEQ ID NO: 40 (peptide)
peptide: Ac-[Pen][NMeR]SDTL[Pen][hPhe][dE][dK]-NH2
modifications: disulfide 1-7; not fully specified (residue 10); printed as (Ac Pen N-Me-R S D T L Pen HPhe e k NH2)2 DIG, disulfide Pen-Pen; also: dimer, two subunits joined by DIG linker
Consider B21, for which the half-inhibitory concentration (IC50) in experiment [1] is at most 10 nM.

B22: SEQ ID NO: 180 (peptide)
peptide: Oleoyl-[Pen][NMeR]SDTL[Pen][Phe(4-tBu)][β3hE][dK]-NH2
modifications: disulfide 1-7
For B22, the concentration for half-maximal inhibition (IC50) in experiment [2] was over 1000 nM.
